Columns and labels:
Details in all cases: remark: other sources report otherwise
[1] = target: myc-LRRK2 (human wild-type full-length leucine rich repeat kinase 2, myc-tagged) (human) (UniProt Q5S007); assay: native gel or EMSA
[2] = target: myc-LRRK2 (human wild-type full-length leucine rich repeat kinase 2, myc-tagged) (human) (UniProt Q5S007); assay: SEC
[3] = target: myc-LRRK2 (human wild-type full-length leucine rich repeat kinase 2, myc-tagged) (human) (UniProt Q5S007); assay: glycerol velocity gradient

- stoichiometry N [1]: 2
- stoichiometry N [2]: 2
- stoichiometry N [3]: 2
Substance: myc-LRRK2 (human wild-type full-length leucine rich repeat kinase 2, myc-tagged), Q5S007 1-2527
